Laboratory results as given in the supplement of paper PMC12764529.
± gives the half width of the 95% confidence interval.

Columns and labels:
[1] = folding stability dG unfold from trypsin proteolysis; higher = more stable
Method in brief: (§1)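 Bayesian fitting of sequencing counts gave K50 for each design. Unfolding free energy followed by setting this against a sequence-predicted unfolded-state K50 and a shared folded-state K50, either per protease or with trypsin and chymotrypsin combined. The designs, under 80 residues and lacking cysteine, were digested in a PA-tagged cDNA display format at 11 threefold-diluted protease concentrations and without protease, and only those with AlphaFold2 dimer inter-PAE above 15 were kept.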

[2] = folding stability dG unfold from chymotrypsin proteolysis; higher = more stable
Method in brief: as §1

[3] = folding stability dG unfold (combined trypsin and chymotrypsin); higher = more stable
Method in brief: as §1

| Sequence | folding stability dG unfold [1] [kcal/mol] | folding stability dG unfold [2] [kcal/mol] | folding stability dG unfold [3] [kcal/mol] |
| --- | --- | --- | --- |
| SAGGSAMYTVTLTLPPSLAIPPDSTITVTFPDGSTETYSVDSGPVTITLTAPADGSTSVGVSLSVPSAGGSA [r15_992_JUSTAS] | 2.6 ± 0.097 | 3.67 ± 0.04 | 3.27 ± 0.1 |
| SAGGPNFIVKIRIPMRKYERENDPGGKPKWEPVEPQRVEITIIFKGPPEQAKQIREELENHGLEVEPISAGG [r13_452_TrROS] | 1.65 ± 0.077 | 2.44 ± 0.098 | 2.05 ± 0.18 |
| SAGGSMERTVELTYTFKDKPIKITITVTTDPETGTVTVPIEIETEDEKIKEPALEKAKELAEELLASAGGSA [r2_259_JUSTAS] | 0.133 ± 0.065 | 0.26 ± 0.13 | 0.301 ± 0.12 |
| SAGGSAGGSAGPEVRIELERDEDGRLRLRATFKLEDGKEVRVEVEFDLKTKKLTVKIEPVSAGGSAGGSAGG [r11_107_TrROS_Hall] | 3.83 ± 0.19 | 4.8 ± 0.41 | 4.63 ± 0.39 |
| SAGGSAGGEEIAKKLGIEKAEIVEVKDNKITLKVKLKNGEELKIELYIDKKTKEIKIVKIEKVPSAGGSAGG [r6_526_TrROS_Hall] | 2.37 ± 0.079 | 3.11 ± 0.075 | 2.88 ± 0.23 |
| SAGGEFLEKVIEAAIEAAKAGPDAKLELTIPVPGGPVKVTIEVGEDGKVKVTIYKGDKKILEIELPLSAGGS [r16_611_TrMRF] | 3.85 ± 0.35 | 4.62 ± 0.34 | > 6 |
| SAGGSAGGSADPNAFPITIFTFKMEIEDVEKTPNGQPELRYKMEVVEIRPIWLPPDDLEDLSAGGSAGGSAG [r3_121_TrROS] | 3 ± 0.16 | 4.39 ± 0.097 | 3.79 ± 0.15 |
| SAGGSAGGSAGGMVIKITTESGEKIEIEVPEEDEEKVKELVKELEKAGFKVKKVEVFEPSAGGSAGGSAGGS [r10_231_TrROS_Hall] | 1.6 ± 0.11 | 1.87 ± 0.073 | 1.77 ± 0.17 |
| SAGGSFIKITTKLPNRKIEIPIPDAEIEVEGNTVTITFPPGNAEEVKKAVLEASDEVEITEVKIIDESAGGS [r8_490_JUSTAS] | -0.107 ± 0.04 | 0.871 ± 0.026 | 0.557 ± 0.087 |
| SAGGSAGGSMYIVNIKFYNPKTGKVLYIPIKTKKEKAEEIAKELAKKLPEIKYIKAEIKPDISSAGGSAGGS [r12_757_TrMRF] | 1.21 ± 0.093 | 1.74 ± 0.19 | 1.59 ± 0.19 |
| SAGGSAGGSKIEIHVQVSPELSPEEALERIRREIEEALPEELKDISLDDIIITVYPSHPDVPLSAGGSAGGS [r12_384_TrMRF] | 1.09 ± 0.047 | -0.0223 ± 0.053 | 0.643 ± 0.099 |
| SAGGSAGGSAGMSALVLKVKIYYPKELFSPEEIEKIKSARIEVEPFLVEVKIDPETGELGSAGGSAGGSAGG [r17_310_TrMRF] | 1.84 ± 0.03 | 2.744 ± 0.021 | 2.38 ± 0.061 |
| SAKIEVYELPDGSKEIVFEFGDKVIRVTFFPDYPLAVVEVFDPPKDEVVKTIPVRADDLEDTIKKILEESAG [r14_583_TrMRF] | 1.8 ± 0.096 | 3.07 ± 0.049 | 2.67 ± 0.049 |
| SAGGSAGGSAGGGLEEIKEAIKKLPENVKEITIKLKDGSTIKIRVEKDKDGKYKITIEPSAGGSAGGSAGGS [r10_1017_TrROS_Hall] | 2.41 ± 0.3 | 2.68 ± 0.15 | 2.5 ± 0.22 |
| SAIEITVMSDSPEEAKEKAKEFANWLQNRMRRDGLPDMPIPIKIEVIPVPPPKPKPKRDPDDGEWKPDPSAG [r14_475_TrROS] | -0.415 ± 0.57 | 0.731 ± 0.34 | 0.487 ± 0.23 |
| SAGGKTVVLEFDSVEDLKAALPPGAEVEIVVIREDGSKKTITVPAKDLKLELKPGEKYRVVIKVKPKKSAGG [r13_461_TrROS_Hall] | 1.5 ± 0.09 | 2.49 ± 0.084 | 2.17 ± 0.12 |
| SAGMTVTVTLNYPTPGGPVTVRVLRGDEEEVVTVPPTETLTITVTLDPDSGATIEVFFPDGSSKTYPLGSAG [r5_187_JUSTAS] | 2.81 ± 0.1 | 3.76 ± 0.14 | 3.35 ± 0.18 |
| SAGGSAGGKGKLVDEPPIRDPNNGKDVWAFIMDPDGRMEVYDPNEIEEIPLKPGQIMIFTPEDLSAGGSAGG [r6_627_TrROS] | 0.757 ± 0.069 | 0.168 ± 0.34 | 0.648 ± 0.16 |
| SAGGSAGGSAGGGTVTLEIELKVKPGEKIKDLATGEEFEVKEGETVRIRITLPLPPAPEESAGGSAGGSAGG [r7_234_TrROS_Hall] | 0.963 ± 0.068 | 1.11 ± 0.078 | 1.2 ± 0.17 |
| SAGGSAGGSAGMRIVLRLPRDVPLEALRRELEALGGEVRIETEDDPDGRLLFVVELRPKESAGGSAGGSAGG [r11_1050_TrMRF] | 1.63 ± 0.061 | 1.81 ± 0.14 | 1.8 ± 0.14 |
| SAGGSASSMPVTLTLLLTRPDGTPLTLPFEAETLEEAIERGTALAQELIAELGDPNMKITGLEVVPSAGGSA [r15_698_JUSTAS] | 0.904 ± 0.067 | 1.44 ± 0.092 | 1.22 ± 0.1 |

| Sequence | folding stability dG unfold [1] [kcal/mol] | folding stability dG unfold [2] [kcal/mol] | folding stability dG unfold [3] [kcal/mol] |
| --- | --- | --- | --- |
| SAGGMTVERVPGSGVYTLTFPDGSTETLEIPPEENAVVYAKEGAGTVTVKLAPPDDPEALAAAAALSSAGGS [r16_623_JUSTAS] | -0.344 ± 0.083 | 0.357 ± 0.069 | 0.15 ± 0.066 |
| SLLELAKQANGPLKINVKSEWVTLPDGTPVEIINVEVSQDPNSDVATVTKTVVDPDKDTSSTSTSTIPLGSS [r1_448_JUSTAS] | -0.95 ± 0.17 | 0.316 ± 0.077 | -0.0266 ± 0.14 |
| SAGGSAGGSIKPGQKVKIEIKVEEVDGKLVITAKVYNKDGKLIYEAEIVIENGKIKEVKITPPSAGGSAGGS [r12_264_TrROS_Hall] | 2.58 ± 0.16 | 3.11 ± 0.31 | 2.9 ± 0.34 |
| SAGGSAGGSAGGSGMTSTTYRLPEGNVVLVETFDPATGTVTLEIRGPPSVERTLTLPVASAGGSAGGSAGGS [r4_443_JUSTAS] | 2.63 ± 0.29 | 3.64 ± 0.088 | 3.21 ± 0.24 |
| SAIKLPDGFEIKEVEFTPDGNVTIKIEVKKYSFMIYNPDNGQIQHIPPGKEQEITMPPNEPMRIWVIKPSAG [r14_385_TrROS] | 1.45 ± 0.13 | 1.58 ± 0.26 | 1.48 ± 0.36 |
| SAGPVLYRVTITVEVSSSGEKGKTLTLEFLVPPSVSGEEVRDRVLALLKAQGYKVEKITVTVTPLPSSASAG [r14_979_JUSTAS] | 4.03 ± 0.21 | 5.36 ± 0.13 | 5.27 ± 0.14 |
| SAGGSAGGSAGAGKVVFEVDIKTFLGKRKDGSDAPKTIIEIKVFDIAPLDPNDPVLKALISAGGSAGGSAGG [r11_236_TrMRF] | 2.28 ± 0.11 | 3.54 ± 0.15 | 3.26 ± 0.22 |
| SAGGSAGGSAMKIEIEVDPKTNVIYIRVNGLVYRFTKSEDGYIYIEVYDKNGKLIETFRLKLSAGGSAGGSA [r18_333_TrROS_Hall] | 3.52 ± 0.13 | 4.83 ± 0.1 | 4.4 ± 0.18 |
| SASKGSSMITVELTVTVPPSVSIEEVKKQFEEEFPKDAEIKVEATPVTVPANGTPVTTIKVTVTITKKESAG [r14_633_JUSTAS] | 1.27 ± 0.1 | 1.71 ± 0.11 | 1.56 ± 0.13 |
| SAGGSAGGSAGSLLTETSESVINDTKITHVLEIDPSSGALRLILETKHPDPGIVTVELLPSAGGSAGGSAGG [r17_242_JUSTAS] | 0.943 ± 0.023 | 0.857 ± 0.061 | 0.885 ± 0.072 |
| SAGGMKKVRLTLVFESEEEALEALRKALEEAGVEVKVVRVERLPDGRVVVTVEIEVSDEVLEALKAASAGGS [r8_357_TrROS_Hall] | 3.77 ± 0.068 | 4.01 ± 0.053 | 3.91 ± 0.056 |
| SAGGSAGGSAMRELVKRAAKNGNPGQKVMIRPPDKRYFPITVEGNKIEPKDLPPGWEVHVISAGGSAGGSAG [r3_244_TrROS] | -0.427 ± 0.39 | -0.443 ± 0.3 | -0.37 ± 0.28 |
| SAGGSAGGSAGGSMATITPEGDKYLVTITNPDGSTTTKEFDSLEEVKKLPSSYPIEFSDSAGGSAGGSAGGS [r4_447_JUSTAS] | 2.11 ± 0.065 | 0.802 ± 0.026 | 1.52 ± 0.094 |
| SMKIKSIKIEPIRIGDEEYFLIPIEVDGEEIPPEEVKRLVEELFEKLGLPLDPVLLEDPESDIVLVLARGSA [r9_717_TrMRF] | 1.82 ± 0.053 | 1.34 ± 0.11 | 1.48 ± 0.16 |
| SAMELSPEERAELLIEAVRRKLEEARKKGIPNKKVKVTIVLSEEEREALAKRIEEELKEEGYEVEIVPESAG [r14_908_TrROS_Hall] | 2.17 ± 0.068 | 2.61 ± 0.13 | 2.29 ± 0.17 |
| SAGGSAGGSAGGMSLSTSVESLTVFDSSGNVLEERTITVEKTVPLFGKPVYVYPTPSNTLSAGGSAGGSAGG [r17_325_JUSTAS] | 0.136 ± 0.1 | 0.248 ± 0.11 | 0.265 ± 0.12 |
| SAGVVVRPGEPVPFYVVRVETELRTRPRPDGSEVTTVETRVEVRPYTVTVGPVPVVEVPPDATDPADAASAG [r5_770_TrMRF] | 2.09 ± 0.2 | 3.96 ± 0.17 | 3.21 ± 0.16 |
| SAMEIEKIEIEKEEVNGKLYYRIRVKIINKETGKEIELELEFKSLEDALEALKKLPNITRVEITEIEPVSAG [r14_464_TrROS_Hall] | 3.55 ± 0.11 | 5.18 ± 0.091 | 4.93 ± 0.093 |
| SAGGSAGGSAGGSKPKVKITIEKNKETNEYTITIEKDGKKYTFVVKNLKPDDPAIKKALSAGGSAGGSAGGS [r4_328_TrROS_Hall] | 1.1 ± 0.043 | 3.007 ± 0.03 | 2.55 ± 0.09 |
| SAGGSAGGSAGMTTLTVTVPAPPDALTPEDVVALLRPEYPDATITVTREGDTLVVTVTVASAGGSAGGSAGG [r11_7_JUSTAS] | 3.31 ± 0.058 | 2.39 ± 0.033 | 2.83 ± 0.047 |
